Source: publication PMC4817975 (PLoS ONE, 2016)
Like-named read-outs stand apart in the source and are kept apart here.

Key:
[1] = target: T1, Human kappa opioid receptor (KOR) (Homo sapiens, UniProt P41145); assay: Time-resolved SPA stability assay of high-affinity [3H]-DPN binding; settings: for τ1, exponential time constant: exponential decay fit; for N1, initial active receptor population: exponential decay fit (single for DDM, double for Nanodiscs)
T1 construct: made in house; host or cells: Pichia pastoris
Method: All procedures were performed on ice or at 4°C until assay counting was initiated at room temperature (23°C). Time-resolved stability assay with detergent-extracted MPs was carried out directly after solubilization in binding buffer I (20 mM Tris-HCl, pH 7.4, 500 mM NaCl, 5% glycerol, 1 mM PMSF, 0.1 mM TCEP, 0.4% BSA). Solubilized proteins were diluted in the assay resulting in a final concentration of 0.1% DDM in the assay buffer. Stability assays performed with KOR reconstituted in Nanodiscs were done in binding buffer II (20 mM Tris-HCl pH 7.4, 100 mM NaCl pH 7.4, 0.4% BSA). KOR/Nanodisc samples were added at quantities corresponding to approximately 30 fmol/well. Samples were mixed with 0.5 mg/well yttrium silicate (YSi) streptavidin coated SPA beads (Perkin Elmer) in binding buffer and a final concentrations of 10 nM [^3H]-DPN (42.3 Ci/mmol, Perkin Elmer) in a total volume of 200 μl. In parallel, the non-specific binding was measured including 50 μM naloxone in the assay. All measurements were performed in triplicates in a white-wall clear-bottom 96-well plate (Wallac). The assay was gently shaken on a vibrating platform at 4°C for 1.5 hours to equilibrate ligand binding and immobilization of receptors on the SPA beads. After incubation the assay was counted with a liquid scintillation counter (Wallac Microbeta TriLux 1450, SPA cpm mode) repeatedly with 17 min between measurements at room temperature. As a control, the same assay conditions as described above were performed at RT and bound and free radioligands were separated at specific time points on Sephadex G-50 gravity-flow columns (GE Healthcare) equilibrated in binding buffer. After applying 50 μl of samples, columns were centrifuged for 2 min at 1000 x g. Separated samples were mixed with scintillation liquid and incubated for 1 hour at RT, before counting on a liquid scintillation counter. As data analysis, specific binding was normalized to the initial binding at time zero, corresponding to initiation of assay counting at RT. The half-life of high-affinity ligand binding was calculated from fitting to single or double exponential decay functions in Igor Pro 6.1.

[2] = target: T1, Human kappa opioid receptor (KOR); assay: Radioligand filter binding assay (saturation), KOR in P. pastoris membranes; settings: one-site model, read-out: KD, P.Pastoris membrane
Method: Specific ligand binding to KOR in P. pastoris membranes was measured by radioligand filter binding assay. Isolated P. pastoris membranes were diluted in binding buffer (50 mM Tris-HCl pH 7.4, 0.5 M NaCl, 1mg/ml BSA) and mixed in triplicates with radioligand [^3H]-diprenorpine (DPN, 42.3 Ci/mmol, Perkin Elmer) in concentrations varying from 0.08 to 10 nM in a 96 well plate (MultiScreen HTS-FC 1.2/0.65 μm glass fiber filter), which was pre-wetted in washing buffer (50 mM Tris-HCl buffer, pH 7.4). Non-specific binding was measured in parallel by including 50 μM naloxone. For each binding experiment, membranes corresponding to 3–5 μg/well were used keeping the ratio of bound radioligand <10% of the total added radioligand. The assay mixture was incubated for 2 h at room temperature. To separate bound from free ligands, the plate was rapidly filtrated and washed four times with 100 μl ice-cold washing buffer. Scintillation liquid (Ultima Gold XR, Perkin Elmer) was added to the wells and the assay was counted by a liquid scintillation counter (Wallac Microbeta TriLux 1450). Specific binding was calculated and KD was measured from saturation curves fitted to a one-site binding model using Igor Pro 6.1.

[3] = target: KOR; set-up: method as in PMID 22437504, PMID 15956349; settings: literature value; cited from earlier work
[4] = target: T2, Human kappa opioid receptor (KOR) reconstituted in Nanodiscs (Homo sapiens, UniProt P41145); settings: SPA saturation binding, one-site model
T2 construct: made in house; host or cells: Pichia pastoris (KOR)
Method: In parallel non-specific binding was measured in the presence of 50 μM naloxone. […] Therefore, saturation and inhibition binding assays were performed with reduced SPA beads/well; 0.25 mg/well of streptavidin-coated SPA YSI beads. […] Ki was measured from the IC50 value.

[5] = 10 nM [3H]-DPN, 23°C, double exponential fit

T1 sequence (P41145 whole entry): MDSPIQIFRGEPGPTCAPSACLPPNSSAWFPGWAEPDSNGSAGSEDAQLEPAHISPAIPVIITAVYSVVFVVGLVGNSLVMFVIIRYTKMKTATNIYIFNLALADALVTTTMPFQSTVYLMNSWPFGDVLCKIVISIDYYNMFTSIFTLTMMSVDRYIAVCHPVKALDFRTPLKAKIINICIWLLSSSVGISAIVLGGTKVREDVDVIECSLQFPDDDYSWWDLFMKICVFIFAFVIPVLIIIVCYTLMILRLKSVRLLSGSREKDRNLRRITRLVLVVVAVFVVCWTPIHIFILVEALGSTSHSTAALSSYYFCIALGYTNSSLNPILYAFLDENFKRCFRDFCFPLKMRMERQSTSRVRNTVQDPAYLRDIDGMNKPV
T2 sequence (P41145 whole entry): as above

KOR in Nanodiscs: human kappa opioid receptor reconstituted in MSP1E3D1 Nanodiscs with POPC:POPG 3:2
N2, initial active receptor population (slow component) [1, 5]: 68.9 ± 0.7% | τ2, exponential time constant [1, 5]: 36.8 ± 1.6 h | N2, initial active receptor population (slow component) ([1]; 10 nM [3H]-DPN, 23°C, double exponential fit, listed as KOR reconstituted in Nanodiscs): 68.9% | τ1, exponential time constant ([1]; 10 nM [3H]-DPN, 23°C): 1.2 ± 0.1 h | N1, initial active receptor population ([1]; 10 nM [3H]-DPN, 23°C): 29.4 ± 0.8% | ligand binding relative to the initial activity after 100 minutes ([1]; after counting for 100 minutes at room temperature, n = 5): 73.5 ± 2.5% | stability improvement (Taverage in Nanodiscs vs half-life in DDM micelles) ([1]; from fitted curves): approximately 70 fold

KOR in DDM micelles: human kappa opioid receptor solubilized in DDM/CHS, 0.1%/0.02% in the assay
τ1, exponential time constant ([1]; 10 nM [3H]-DPN, 23°C): 0.4 ± 0.01 h | N1, initial active receptor population ([1]; 10 nM [3H]-DPN, 23°C): 97.4 ± 1.5% | time to complete loss of ligand binding activity ([1]; room temperature (23°C), 10 nM [3H]-DPN): ≤ 100 min

diprenorpine [[3H]-DPN]
Kd ([2]; listed as [^3H]-DPN): 0.94 ± 0.14 nM | Kd [2]: 0.9 ± 0.1 nM | Kd [3]: 0.8 nM | Kd [4]: 0.8 ± 0.2 nM | Kd ([4]; listed as [^3H]-DPN): 0.84 ± 0.15 nM
